Data taken from PMC10400029, “Bicarbonate activation of the monomeric photosystem II-PsbS/Psb27 complex” (Plant Physiology, 2023).

Tests used:
[1] = molecular target: T1, PSIIm-S/27 (monomeric photosystem II-PsbS/Psb27 complex) (Nicotiana tabacum, UniProt P69556+P69686); test: flash-induced chlorophyll fluorescence decay; assay type: biochemical; settings: 10 µM DCMU, 15 °C (also 20 °C), pH 6.5; QB site, blocks electron transfer from QA
T1 construct: gene psbA; native PSII core monomer from stromal lamellae/grana margins; His6 tag at 5' end of psbE; beta-DDM; PsbS and Psb27 quasi-stoichiometric; with Photosystem II CP47 reaction center protein; Photosystem II CP43 reaction center protein; Cytochrome b559 subunit alpha; Cytochrome b559 subunit beta; Photosystem II 22 kDa protein, chloroplastic; Photosystem II repair protein PSB27, chloroplastic

[2] = molecular target: photosystem II monomer core complex (PSIIm), His6-tagged on PsbE (N. tabacum | N. tabacum (endogenous in tobacco thylakoids)) (UniProt P69384)

Sequence of PsbS (Q9SMB4 67-274): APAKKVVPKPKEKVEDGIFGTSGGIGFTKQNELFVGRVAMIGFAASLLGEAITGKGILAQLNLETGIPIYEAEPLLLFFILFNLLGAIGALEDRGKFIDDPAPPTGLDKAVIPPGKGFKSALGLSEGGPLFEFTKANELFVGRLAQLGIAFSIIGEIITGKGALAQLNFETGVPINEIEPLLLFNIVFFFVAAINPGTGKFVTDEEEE

Compound	flash-induced chlorophyll fluorescence decay [1]	decay of flash-induced chlorophyll fluorescence yield (QA^•− oxidation) at 15 °C, PSIIm-S/27 against PSIIm [2] [fold]
CN(C)C(=O)Nc1ccc(Cl)c(Cl)c1 [DCMU]	presence of PsbS and/or Psb27 does not interfere with the DCMU binding	
Psb27 (natural protein)		10
PsbS (from UniProt Q9SMB4 67-274) (natural protein)		10
